From US20020004209A1, “Use of SLIM3 for binding to molecules” (Schering Aktiengesellschaft Patents, priority 1999, published 2002)

Legend:
Experiment in all cases: GST-protein-interaction test
Format in all cases: binding
Details in all cases: in vitro
estrogen receptors alpha = target: T1, estrogen receptors alpha (Homo sapiens, UniProt P03372)
T1 construct: made in house; host or cells: in vitro translation, 35S-methionine labelled
T1 sequence (P03372 1-595): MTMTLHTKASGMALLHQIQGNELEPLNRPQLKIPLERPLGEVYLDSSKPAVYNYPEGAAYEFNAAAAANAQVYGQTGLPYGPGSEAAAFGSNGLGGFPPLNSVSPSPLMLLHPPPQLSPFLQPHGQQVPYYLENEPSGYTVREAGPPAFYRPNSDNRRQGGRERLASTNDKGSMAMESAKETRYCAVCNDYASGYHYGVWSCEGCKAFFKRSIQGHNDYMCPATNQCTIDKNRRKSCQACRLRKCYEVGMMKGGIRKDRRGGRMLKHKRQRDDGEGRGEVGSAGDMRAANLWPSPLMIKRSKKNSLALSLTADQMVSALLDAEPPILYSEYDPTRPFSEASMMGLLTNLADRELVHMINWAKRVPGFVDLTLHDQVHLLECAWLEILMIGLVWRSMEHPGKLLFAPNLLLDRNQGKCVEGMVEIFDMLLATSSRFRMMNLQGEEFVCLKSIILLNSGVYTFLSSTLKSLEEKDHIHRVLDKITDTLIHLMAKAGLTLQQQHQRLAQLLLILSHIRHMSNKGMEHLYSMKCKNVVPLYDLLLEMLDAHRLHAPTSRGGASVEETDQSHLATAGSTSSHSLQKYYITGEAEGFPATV
Procedure: (§1) To measure the interaction between SLIM3 and the nuclear receptors in vitro, the GST-Slim3 fusion protein was immobilized by means of glutathione-sepharose and incubated with several in vitro-translated ^35S-methionine-labeled nuclear receptors. The complete human androgen receptor binds to GST-Slim3. This in vitro interaction is not ligand-dependent under standard conditions. The complete human androgen receptor binds specifically to GST-Slim3, but not to the GST protein alone. To safeguard the specificity between the human androgen receptor and SLIM3, another GST-protein-interaction test was carried out (GST-protein-interaction assay). This test is described in E. PFITZNER et al. (1995) Functional Antagonism Between the Retinoid Acid Receptor and the Viral Transactivator BZLF1 is Mediated by Protein-Protein Interactions. Proc Natl Acad Sci USA Vol. 92, pp. 12265-12269.

[1] = target: T2, progesterone receptor beta (Homo sapiens, UniProt P06401)
T2 construct: made in house; host or cells: in vitro translation, 35S-methionine labelled
T2 sequence (P06401 1-933): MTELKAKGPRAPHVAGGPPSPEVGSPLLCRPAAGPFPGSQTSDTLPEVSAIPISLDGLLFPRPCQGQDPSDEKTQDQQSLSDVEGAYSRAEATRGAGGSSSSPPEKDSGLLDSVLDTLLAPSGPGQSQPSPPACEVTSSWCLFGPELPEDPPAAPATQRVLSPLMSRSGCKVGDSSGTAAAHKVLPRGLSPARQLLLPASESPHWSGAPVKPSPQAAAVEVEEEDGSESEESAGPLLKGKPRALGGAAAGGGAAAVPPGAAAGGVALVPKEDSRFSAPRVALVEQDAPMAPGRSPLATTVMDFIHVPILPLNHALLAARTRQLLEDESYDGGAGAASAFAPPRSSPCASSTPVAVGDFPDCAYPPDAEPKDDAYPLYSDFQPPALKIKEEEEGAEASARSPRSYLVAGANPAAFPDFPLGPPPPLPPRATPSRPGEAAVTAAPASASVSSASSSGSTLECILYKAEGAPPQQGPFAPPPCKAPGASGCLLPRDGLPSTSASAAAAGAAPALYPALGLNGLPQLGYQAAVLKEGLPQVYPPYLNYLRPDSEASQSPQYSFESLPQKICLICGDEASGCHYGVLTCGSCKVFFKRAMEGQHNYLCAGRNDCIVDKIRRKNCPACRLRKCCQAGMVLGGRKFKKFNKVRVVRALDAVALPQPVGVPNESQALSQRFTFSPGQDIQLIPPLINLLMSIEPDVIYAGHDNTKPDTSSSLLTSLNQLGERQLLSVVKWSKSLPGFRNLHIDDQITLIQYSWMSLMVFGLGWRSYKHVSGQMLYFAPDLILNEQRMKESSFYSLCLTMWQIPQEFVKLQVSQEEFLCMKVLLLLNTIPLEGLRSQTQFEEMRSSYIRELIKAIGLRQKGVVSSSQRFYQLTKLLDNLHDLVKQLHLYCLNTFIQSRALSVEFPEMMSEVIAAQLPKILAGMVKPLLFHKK
Procedure: as §1

co-activator TIF2 = co-activator TIF2 (Homo sapiens, UniProt Q15596)
Procedure: as §1

glucocorticoid receptors = target: T3, glucocorticoid receptors (Homo sapiens, UniProt P04150)
T3 construct: made in house; host or cells: in vitro translation, 35S-methionine labelled
T3 sequence (P04150 1-777): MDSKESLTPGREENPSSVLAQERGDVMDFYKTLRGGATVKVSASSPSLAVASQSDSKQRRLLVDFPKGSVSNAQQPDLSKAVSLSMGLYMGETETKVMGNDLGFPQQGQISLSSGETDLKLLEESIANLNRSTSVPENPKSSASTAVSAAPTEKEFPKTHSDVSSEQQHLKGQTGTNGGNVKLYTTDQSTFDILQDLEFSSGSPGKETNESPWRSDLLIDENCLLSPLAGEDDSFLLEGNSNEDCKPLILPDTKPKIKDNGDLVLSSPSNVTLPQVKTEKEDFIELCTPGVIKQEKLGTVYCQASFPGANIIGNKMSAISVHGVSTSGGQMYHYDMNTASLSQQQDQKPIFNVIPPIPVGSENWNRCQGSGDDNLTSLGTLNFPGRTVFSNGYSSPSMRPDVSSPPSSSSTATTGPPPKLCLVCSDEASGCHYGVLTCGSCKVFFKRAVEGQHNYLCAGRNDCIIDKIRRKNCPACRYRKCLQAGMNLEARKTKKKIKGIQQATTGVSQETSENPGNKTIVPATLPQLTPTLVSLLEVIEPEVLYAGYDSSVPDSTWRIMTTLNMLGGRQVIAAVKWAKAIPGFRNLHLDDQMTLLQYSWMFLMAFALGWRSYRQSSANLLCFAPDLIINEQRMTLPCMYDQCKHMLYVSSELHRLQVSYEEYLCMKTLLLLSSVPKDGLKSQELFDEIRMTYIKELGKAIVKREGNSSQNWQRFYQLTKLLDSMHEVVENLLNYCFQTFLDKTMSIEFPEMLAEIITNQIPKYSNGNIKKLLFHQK
Procedure: as §1

Sequence of co-activator TIF2 (Q15596 whole entry): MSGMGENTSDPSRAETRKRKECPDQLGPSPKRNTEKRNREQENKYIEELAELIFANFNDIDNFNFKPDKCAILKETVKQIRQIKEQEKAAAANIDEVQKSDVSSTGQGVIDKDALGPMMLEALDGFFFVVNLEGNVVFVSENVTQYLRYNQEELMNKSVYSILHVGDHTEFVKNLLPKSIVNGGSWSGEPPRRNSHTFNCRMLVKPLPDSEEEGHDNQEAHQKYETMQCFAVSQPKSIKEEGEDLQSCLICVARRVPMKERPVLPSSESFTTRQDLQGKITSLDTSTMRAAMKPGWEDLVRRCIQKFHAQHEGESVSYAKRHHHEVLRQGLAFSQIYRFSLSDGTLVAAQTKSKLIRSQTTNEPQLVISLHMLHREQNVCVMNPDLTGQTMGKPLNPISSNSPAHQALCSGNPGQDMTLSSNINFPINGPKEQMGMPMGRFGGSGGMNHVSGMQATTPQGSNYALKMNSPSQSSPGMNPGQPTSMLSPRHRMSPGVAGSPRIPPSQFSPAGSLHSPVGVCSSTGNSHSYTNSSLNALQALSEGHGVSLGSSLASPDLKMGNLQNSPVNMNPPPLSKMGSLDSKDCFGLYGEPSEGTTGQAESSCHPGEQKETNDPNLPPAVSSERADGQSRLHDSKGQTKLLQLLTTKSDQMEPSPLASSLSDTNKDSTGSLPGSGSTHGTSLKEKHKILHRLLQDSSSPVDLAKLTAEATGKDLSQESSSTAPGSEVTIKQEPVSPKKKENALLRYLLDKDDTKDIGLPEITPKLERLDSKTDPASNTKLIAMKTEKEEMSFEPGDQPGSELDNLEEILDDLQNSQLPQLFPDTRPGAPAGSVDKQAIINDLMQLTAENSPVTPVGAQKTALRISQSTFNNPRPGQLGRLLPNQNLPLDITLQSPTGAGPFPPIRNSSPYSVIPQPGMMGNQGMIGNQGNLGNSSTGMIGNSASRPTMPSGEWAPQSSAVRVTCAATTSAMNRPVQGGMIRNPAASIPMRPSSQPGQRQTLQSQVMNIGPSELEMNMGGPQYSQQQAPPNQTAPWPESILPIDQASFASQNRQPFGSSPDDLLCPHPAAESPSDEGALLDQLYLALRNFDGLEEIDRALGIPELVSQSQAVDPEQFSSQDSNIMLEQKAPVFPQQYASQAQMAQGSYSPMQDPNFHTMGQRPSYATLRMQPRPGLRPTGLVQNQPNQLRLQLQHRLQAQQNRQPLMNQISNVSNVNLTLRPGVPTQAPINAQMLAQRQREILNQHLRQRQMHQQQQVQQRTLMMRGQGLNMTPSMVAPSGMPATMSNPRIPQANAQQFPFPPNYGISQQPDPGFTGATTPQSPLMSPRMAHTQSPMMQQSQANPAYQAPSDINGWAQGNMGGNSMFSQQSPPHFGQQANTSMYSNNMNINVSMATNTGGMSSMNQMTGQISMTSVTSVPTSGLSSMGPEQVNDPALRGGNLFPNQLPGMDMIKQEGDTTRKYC
Sequence of co-activator TIF2 (Q14192 whole entry partner): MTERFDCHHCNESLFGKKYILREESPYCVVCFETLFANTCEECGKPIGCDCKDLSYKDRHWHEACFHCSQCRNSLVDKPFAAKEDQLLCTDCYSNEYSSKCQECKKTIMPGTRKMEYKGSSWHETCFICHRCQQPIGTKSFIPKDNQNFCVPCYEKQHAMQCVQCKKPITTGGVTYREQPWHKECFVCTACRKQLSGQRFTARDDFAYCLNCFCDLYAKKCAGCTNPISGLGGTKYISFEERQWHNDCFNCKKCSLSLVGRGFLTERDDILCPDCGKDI

SLIM3: LIM-domain protein of 279 amino acids, co-activator for nuclear receptors AR and ERβ
bond to SLIM3 (estrogen receptors alpha): no bond | bond to SLIM3 [1]: no bond | interaction with co-activator (co-activator TIF2): interacts | bond to SLIM3 (glucocorticoid receptors): no bond
